B1: RLLQKSKEL (SEQ ID NO: 246) (peptide)
peptide: RLLQKSKEL
B2: DAAAFFKSV (SEQ ID NO: 251) (peptide)
peptide: DAAAFFKSV
B3: IPLAIARL (SEQ ID NO: 238) (peptide)
peptide: IPLAIARL
B4: EEYKFPSL (SEQ ID NO: 212) (peptide)
peptide: EEYKFPSL
B5: AARAPPQAL (SEQ ID NO: 250) (peptide)
peptide: AARAPPQAL
B6: LPYPPQKVV (SEQ ID NO: 224) (peptide)
peptide: LPYPPQKVV
B7: FPSLFINQF (SEQ ID NO: 213) (peptide)
peptide: FPSLFINQF
B8: WIGLRNLDL (SEQ ID NO: 33) (peptide)
peptide: WIGLRNLDL
B9: EARPPSPAV (SEQ ID NO: 216) (peptide)
peptide: EARPPSPAV
B10: ESMLKTTL (SEQ ID NO: 40) (peptide)
peptide: ESMLKTTL
B11: DNHPRLVTL (SEQ ID NO: 218) (peptide)
peptide: DNHPRLVTL
B12: SLKEELLSL (SEQ ID NO: 221) (peptide)
peptide: SLKEELLSL
B13: SIQSRYISM (SEQ ID NO: 3) (peptide)
peptide: SIQSRYISM
B14: DTHTNTYYL (SEQ ID NO: 229) (peptide)
peptide: DTHTNTYYL
B15: DARCKLAEL (SEQ ID NO: 26) (peptide)
peptide: DARCKLAEL
B16: DVSARKLRV (SEQ ID NO: 223) (peptide)
peptide: DVSARKLRV
B17: VLRRKTLL (SEQ ID NO: 42) (peptide)
peptide: VLRRKTLL
B18: DLQKKAQAL (SEQ ID NO: 30) (peptide)
peptide: DLQKKAQAL
B19: DVKLVFVM (SEQ ID NO: 233) (peptide)
peptide: DVKLVFVM
B20: EVYQKIIL (SEQ ID NO: 38) (peptide)
peptide: EVYQKIIL
B21: MPKRAHWGA (SEQ ID NO: 225) (peptide)
peptide: MPKRAHWGA
B22: SEVNKHETAL (SEQ ID NO: 248) (peptide)
peptide: SEVNKHETAL
B23: QVMPKTGL (SEQ ID NO: 4) (peptide)
peptide: QVMPKTGL
B24: DAKSKIEQI (SEQ ID NO: 39) (peptide)
peptide: DAKSKIEQI
B25: HALPPYITVL (SEQ ID NO: 244) (peptide)
peptide: HALPPYITVL
B26: EVRLKPIL (SEQ ID NO: 22) (peptide)
peptide: EVRLKPIL
B27: DIKKTNESL (SEQ ID NO: 23) (peptide)
peptide: DIKKTNESL
B28: DAPRHRLL (SEQ ID NO: 214) (peptide)
peptide: DAPRHRLL
B29: ETIKGHSVRL (SEQ ID NO: 217) (peptide)
peptide: ETIKGHSVRL
B30: IVKIKVQEL (SEQ ID NO: 36) (peptide)
peptide: IVKIKVQEL
B31: ELFLHPVL (SEQ ID NO: 29) (peptide)
peptide: ELFLHPVL
B32: LPLDSRYVTL (SEQ ID NO: 237) (peptide)
peptide: LPLDSRYVTL
B33: TPEPSVHAL (SEQ ID NO: 247) (peptide)
peptide: TPEPSVHAL
B34: LAVRHLSL (SEQ ID NO: 220) (peptide)
peptide: LAVRHLSL
B35: RGALRTLSL (SEQ ID NO: 41) (peptide)
peptide: RGALRTLSL
B36: KVIDRKVEL (SEQ ID NO: 240) (peptide)
peptide: KVIDRKVEL
B37: KLYIHRVTL (SEQ ID NO: 232) (peptide)
peptide: KLYIHRVTL
B38: QQIDRVVEV (SEQ ID NO: 249) (peptide)
peptide: QQIDRVVEV
B39: GEKLLRPSL (SEQ ID NO: 231) (peptide)
peptide: GEKLLRPSL
B40: DPKSRLKSL (SEQ ID NO: 28) (peptide)
peptide: DPKSRLKSL
B41: IYRKKYIL (SEQ ID NO: 34) (peptide)
peptide: IYRKKYIL
B42: SRFPGMSVL (SEQ ID NO: 227) (peptide)
peptide: SRFPGMSVL
B43: NPLIEIISI (SEQ ID NO: 215) (peptide)
peptide: NPLIEIISI
B44: DIYEVAVSL (SEQ ID NO: 226) (peptide)
peptide: DIYEVAVSL
B45: SPNSLVTIL (SEQ ID NO: 235) (peptide)
peptide: SPNSLVTIL
B46: VRNPKILIL (SEQ ID NO: 219) (peptide)
peptide: VRNPKILIL
B47: NPYLKLVL (SEQ ID NO: 32) (peptide)
peptide: NPYLKLVL
B48: KPQSLQLVL (SEQ ID NO: 242) (peptide)
peptide: KPQSLQLVL
B49: EAFSRASL (SEQ ID NO: 37) (peptide)
peptide: EAFSRASL
B50: ELFQRPVL (SEQ ID NO: 35) (peptide)
peptide: ELFQRPVL
B51: NAYEAPSI (SEQ ID NO: 241) (peptide)
peptide: NAYEAPSI
B52: EGVPPGTVL (SEQ ID NO: 243) (peptide)
peptide: EGVPPGTVL
B53: DVYFHHVL (SEQ ID NO: 230) (peptide)
peptide: DVYFHHVL
B54: HLHPKGREL (SEQ ID NO: 25) (peptide)
peptide: HLHPKGREL
B55: DLVLKRCL (SEQ ID NO: 24) (peptide)
peptide: DLVLKRCL
B56: SPRVKWTF (SEQ ID NO: 31) (peptide)
peptide: SPRVKWTF
B57: STLKKSLEI (SEQ ID NO: 236) (peptide)
peptide: STLKKSLEI
B58: AQKAELIAL (SEQ ID NO: 222) (peptide)
peptide: AQKAELIAL
B59: GPRGPSSGHPL (SEQ ID NO: 245) (peptide)
peptide: GPRGPSSGHPL
B60: SEPVMRVTL (SEQ ID NO: 239) (peptide)
peptide: SEPVMRVTL
B61: TLRAYVLAL (SEQ ID NO: 228) (peptide)
peptide: TLRAYVLAL
B62: VFRVGISF (SEQ ID NO: 234) (peptide)
peptide: VFRVGISF

The target in this experiment is T1, HLA-B*08:01 (human).
T1 construct: MHC monomer first loaded with a UV-sensitive peptide that is cleaved by UV light and exchanged for the test peptide
Description: UV peptide exchange ELISA. The text has this:
Candidate peptides for T cell based therapies according to the present invention were further tested for their MHC binding capacity (affinity). The individual peptide-MHC complexes were produced by UV-ligand exchange, where a UV-sensitive peptide is cleaved upon UV-irradiation and exchanged with the peptide of interest as analyzed. Only peptide candidates that can effectively bind and stabilize the peptide-receptive MHC molecules prevent dissociation of the MHC complexes. To determine the yield of the exchange reaction, an ELISA was performed based on the detection of the light chain (β2m) of stabilized MHC complexes. The assay was performed as generally described in Rodenko et al. (Rodenko et al., 2006).
96 well MAXISorp plates (NUNC) were coated over night with 2 ug/ml streptavidin in PBS at room temperature, washed 4× and blocked for 1 h at 37° C. in 2% BSA containing blocking buffer. Refolded HLA-A*02:01/MLA-001 monomers served as standards, covering the range of 15-500 ng/ml. Peptide-MHC monomers of the UV-exchange reaction were diluted 100-fold in blocking buffer. Samples were incubated for 1 h at 37° C., washed four times, incubated with 2 ug/ml HRP conjugated anti-β2m for 1 h at 37° C., washed again and detected with TMB solution that is stopped with […]. Absorption was measured at 450 nm. Candidate peptides that show a high exchange yield (preferably higher than 50%, most preferred higher than 75%) are generally preferred for a generation and production of antibodies or fragments thereof, and/or T cell receptors or fragments thereof, as they show sufficient avidity to the MHC molecules and prevent dissociation of the MHC complexes.
(In general: An ELISA detects its analyte on a solid surface through an enzyme-linked reagent.)
Molecule B1 came in with a peptide exchange yield of 20 to 50%.
With B2 the figure was 20 to 50%; with B3, 50 to 75%; with B4, 20 to 50%.
Under B5 stands 20 to 50%; under B6, 20 to 50%; under B7, 20 to 50%.
Regarding B8, the peptide exchange yield lay in the range of 50 to 75%.
Under B9 stands 20 to 50%; under B10, 20 to 50%; under B11, 50 to 75%.
With B12 the figure was 50 to 75%; with B13, 50 to 75%.
Regarding B14, the peptide exchange yield was 20 to 50%.
Under B15 stands 20 to 50%.
With B16 the figure was 20 to 50%; with B17, 20 to 50%; with B18, 20 to 50%.
For B19, the peptide exchange yield was 20 to 50%.
B20 registered a peptide exchange yield of 50 to 75%.
Turning to B21, the peptide exchange yield was 50 to 75%.
B22 registered a peptide exchange yield of 20 to 50%.
In the case of B23, the peptide exchange yield was in the range of 20 to 50%.
Under B24 stands 20 to 50%.
B25 returned a peptide exchange yield of 20 to 50%.
Under B26 stands 20 to 50%; under B27, 20 to 50%.
Under B28 stands 20 to 50%; under B29, 20 to 50%; under B30, 20 to 50%.
On to B31, for which the peptide exchange yield fell in the range of 20 to 50%.
Regarding B32, the peptide exchange yield was in the range of 50 to 75%.
Under B33 stands 20 to 50%.
Under B34 stands 20 to 50%; under B35, 20 to 50%; under B36, 20 to 50%.
Molecule B37 came in with a peptide exchange yield of 20 to 50%.
With B38 the figure was 20 to 50%; with B39, 20 to 50%; with B40, 20 to 50%.
Take B41: the peptide exchange yield fell in the range of 20 to 50%.
For the molecule B42, the peptide exchange yield was in the range of 20 to 50%.
Under B43 stands 20 to 50%; under B44, 50 to 75%.
Under B45 stands 50 to 75%; under B46, 20 to 50%.
Under B47 stands 20 to 50%; under B48, 20 to 50%.
B49 returned a peptide exchange yield of 20 to 50%.
Consider B50, for which the peptide exchange yield fell in the range of 20 to 50%.
Regarding B51, the peptide exchange yield was in the range of 20 to 50%.
B52 came in with a peptide exchange yield of 50 to 75%.
Under B53 stands 20 to 50%.
Under B54 stands 20 to 50%; under B55, at least 75%.
Under B56 stands 20 to 50%; under B57, 20 to 50%.
Turning to B58, the peptide exchange yield was in the range of 20 to 50%.
B59 displayed a peptide exchange yield of 20 to 50%.
With B60, the peptide exchange yield lay within 20 to 50%.
With B61, the peptide exchange yield is 50 to 75%.
Turning to B62, the peptide exchange yield was in the range of 20 to 50%.

The values above are taken from US20250145684A1 (IMMATICS BIOTECHNOLOGIES, published 2025).
